Experimental findings from article PMC3710971 (Molecular Cell, 2013) are described below.

In data set [1] the target is HDAC1 (full-length, untagged) (UniProt Q13547 1-482). As to the kind of experiment: crystal structure.
The data set “crystal structure” concerns the molecule itself. As to the kind of experiment: crystal structure.

HDAC1 (full-length, untagged), sequence (Q13547 whole entry): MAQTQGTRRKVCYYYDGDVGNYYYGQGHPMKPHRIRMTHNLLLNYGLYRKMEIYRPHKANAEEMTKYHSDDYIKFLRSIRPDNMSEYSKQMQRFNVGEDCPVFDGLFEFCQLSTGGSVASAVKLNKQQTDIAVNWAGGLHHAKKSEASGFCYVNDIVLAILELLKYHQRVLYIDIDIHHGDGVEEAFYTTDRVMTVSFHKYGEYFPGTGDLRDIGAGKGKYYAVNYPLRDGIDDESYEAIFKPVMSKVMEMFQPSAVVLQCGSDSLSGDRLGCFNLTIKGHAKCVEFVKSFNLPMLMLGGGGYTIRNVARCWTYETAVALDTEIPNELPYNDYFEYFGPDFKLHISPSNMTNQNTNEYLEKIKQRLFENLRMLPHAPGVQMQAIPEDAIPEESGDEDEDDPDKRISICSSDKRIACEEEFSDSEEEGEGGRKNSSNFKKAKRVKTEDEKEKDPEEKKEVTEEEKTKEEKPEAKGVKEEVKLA

B1: ELM2-SANT domain of MTA1 (residues 162-335) (domain or fragment, UniProt Q13330 162-335, looked up)
chain: ADKGEIRVGNRYQADITDLLKEGEEDGRDQSRLETQVWEAHNPLTDKQIDQFLVVARSVGTFARALDCSSSVRQPSLHMSAAAASRDITLFHAMDTLHKNIYDISKAISALVPQGGPVLCRDEMEEWSASEANLFEEALEKYGKDFTDIQQDFLPWKSLTSIIEYYYMWKTTDR
B1: the binding result (in data set [1]; in “crystal structure”) was “binds” each time.
